Assay [1] concerns the target T1, human serum albumin (human, UniProt P02768 25-609).
T1 construct: Amine-coupled to the chip (EDC/NHS); also called HSA
Briefly: ProteOn kinetic analysis.

The target in assay [2] is rat serum albumin (rat, UniProt P02770 25-608). Briefly: ProteOn kinetic analysis.
Assay [3] deals with mouse serum albumin (mouse, UniProt P07724 25-608). Kind of assay: ProteOn kinetic analysis.
Assay [4] addresses cyno serum albumin (cyno, UniProt A2V9Z4 25-608). Kind of assay: ProteOn kinetic analysis.
Assay [5] has as its target guinea pig serum albumin (guinea pig). Briefly: ProteOn kinetic analysis.
In assay [6] the target is T1, human serum albumin. Briefly: ProteOn SPR; Nanobody on immobilized human serum albumin; Langmuir simultaneous ka/kd fit.
Method: (§1) PBS/Tween (phosphate buffered saline, pH7.4, 0.005% Tween20) was used as running buffer and the experiments were performed at 25° C. […] After immobilization, surfaces were deactivated with ethanolamine HCl (flow rate 30 μl/min). Nanobodies were injected for 2 minutes at 45 μl/min over the HSA surface to render a Nanobody capture level of approximately 200 RU. […] After each cycle (i.e. before a new Nanobody capture and blood sample injection step) the HSA surfaces were regenerated with a 2 minute injection of HCl (100 mM) at 45 μl/min. Sensorgram processing and data analysis was performed with ProteOn Manager 3.1.0 (Bio-Rad Laboratories, Inc.).
(§2) Also, for the serum albumin binders tested, a kinetic analysis was performed of the binding interaction with the immobilized serum albumin (Langmuir, simultaneous ka/kd model).
The target of assay [7] is T1, human serum albumin. Described as above. The source holds these as a separate data set.
Method: as §1, §2
The target in assay [8] is T1, human serum albumin. The assay is described as above. The source holds these as a separate data set.
Method: as §1, §2
Assay [9] has as its target T1, human serum albumin. The assay is described as above. This is another data set of the same source.
Method: as §1, §2
Assay [10] addresses T1, human serum albumin. The assay is described as above. This is another data set of the same source.
Method: as §1, §2

Our source for the Kd, koff and kon values is US20220380445A1 (Ablynx, published 2022).

One may read the Kd as the free concentration of one partner at which half of the binding sites on the other are occupied at equilibrium, for simple one-to-one binding. For orientation: koff means a measure of how fast the partners let go of each other. Low values mean slow dissociation, high ones fast dissociation. For orientation: kon means the second-order rate constant of association. Read a low kon as slower complex formation.

T1 sequence (P02768 25-609 limits assumed): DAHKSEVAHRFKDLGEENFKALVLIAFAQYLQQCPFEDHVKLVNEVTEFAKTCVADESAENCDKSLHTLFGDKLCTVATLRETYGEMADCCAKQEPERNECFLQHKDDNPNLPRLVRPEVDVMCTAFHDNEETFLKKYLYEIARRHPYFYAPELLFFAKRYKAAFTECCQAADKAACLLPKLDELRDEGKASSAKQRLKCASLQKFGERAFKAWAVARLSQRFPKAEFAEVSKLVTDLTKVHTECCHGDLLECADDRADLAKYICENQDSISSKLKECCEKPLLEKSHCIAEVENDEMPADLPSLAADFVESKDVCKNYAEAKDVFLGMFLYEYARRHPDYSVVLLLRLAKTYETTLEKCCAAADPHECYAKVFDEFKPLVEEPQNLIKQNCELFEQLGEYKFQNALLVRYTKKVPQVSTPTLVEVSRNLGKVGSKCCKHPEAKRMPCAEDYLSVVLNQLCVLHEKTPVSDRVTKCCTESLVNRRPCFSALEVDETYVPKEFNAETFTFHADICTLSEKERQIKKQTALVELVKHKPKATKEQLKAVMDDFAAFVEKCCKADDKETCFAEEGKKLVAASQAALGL
rat serum albumin, sequence (P02770 25-608 limits assumed): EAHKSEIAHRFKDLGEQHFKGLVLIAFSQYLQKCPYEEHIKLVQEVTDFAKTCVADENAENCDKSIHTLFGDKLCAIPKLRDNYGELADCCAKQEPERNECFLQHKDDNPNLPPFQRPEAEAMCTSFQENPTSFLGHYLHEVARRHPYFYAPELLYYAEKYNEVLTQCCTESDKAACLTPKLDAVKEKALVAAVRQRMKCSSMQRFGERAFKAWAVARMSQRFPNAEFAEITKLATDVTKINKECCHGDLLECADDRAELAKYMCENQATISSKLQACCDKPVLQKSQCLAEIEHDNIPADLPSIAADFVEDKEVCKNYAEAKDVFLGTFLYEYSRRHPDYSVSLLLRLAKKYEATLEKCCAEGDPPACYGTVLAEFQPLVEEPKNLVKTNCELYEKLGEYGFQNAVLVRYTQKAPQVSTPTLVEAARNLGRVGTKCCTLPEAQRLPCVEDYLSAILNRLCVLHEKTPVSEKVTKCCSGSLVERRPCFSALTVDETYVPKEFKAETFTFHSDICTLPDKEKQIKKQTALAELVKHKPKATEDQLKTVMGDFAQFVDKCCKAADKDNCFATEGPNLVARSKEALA
cyno serum albumin, sequence (A2V9Z4 25-608 limits assumed): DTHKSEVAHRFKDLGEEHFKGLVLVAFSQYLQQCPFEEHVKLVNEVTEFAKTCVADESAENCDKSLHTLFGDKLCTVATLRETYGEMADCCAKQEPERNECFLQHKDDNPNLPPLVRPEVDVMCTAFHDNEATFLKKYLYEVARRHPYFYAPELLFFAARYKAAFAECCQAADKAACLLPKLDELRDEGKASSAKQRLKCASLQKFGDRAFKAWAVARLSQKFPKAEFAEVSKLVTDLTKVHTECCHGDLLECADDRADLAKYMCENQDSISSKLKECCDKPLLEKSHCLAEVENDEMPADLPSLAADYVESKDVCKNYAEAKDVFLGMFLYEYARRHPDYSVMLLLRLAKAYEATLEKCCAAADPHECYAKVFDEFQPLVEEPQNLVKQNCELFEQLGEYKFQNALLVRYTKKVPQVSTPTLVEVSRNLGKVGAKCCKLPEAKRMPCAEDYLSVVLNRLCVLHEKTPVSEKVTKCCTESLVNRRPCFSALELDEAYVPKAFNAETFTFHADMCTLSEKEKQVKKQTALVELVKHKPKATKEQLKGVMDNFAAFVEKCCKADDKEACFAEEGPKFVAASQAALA

B1: SEQ ID NO 10 (VHH)
VHH: EVQLVESGGGVVQPGGSLRLSCAASGFTFRSFGMSWVRQAPGKGPEWVSSISGSGSDTLYADSVKGRFTISRDNSKNTLYLQMNSLRPEDTALYYCTIGGSLSRSSQGTLVTVSS
notes: also called R at position 30
B1: the Kd was determined as 0.83 nM in assay [1]; 180 nM in assay [2]; 6.8 nM in assay [3]; 0.89 nM in assay [4]; 5.1 nM in assay [5]. Also, the koff in assay [1] came out at 0.00084 s⁻¹; in assay [2], 0.13 s⁻¹; in assay [3], 0.0073 s⁻¹; in assay [4] it was 0.00081 s⁻¹; in assay [5], 0.0063 s⁻¹. The kon in assay [1] was found to be 1e+06 M⁻¹ s⁻¹; in assay [2] it was 710000 M⁻¹ s⁻¹; in [3], 1.1e+06 M⁻¹ s⁻¹; in assay [4] it was 910000 M⁻¹ s⁻¹; in [5], 1.2e+06 M⁻¹ s⁻¹.

B2: Reference A+L11V+V89T+C-terminal alanine, N-terminal HIS6 tag (VHH)
VHH: EVQLVESGGGVVQPGGSLRLSCAASGFTFRSFGMSWVRQAPGKGPEWVSSISGSGSDTLYADSVKGRFTISRDNSKNTLYLQMNSLRPEDTATYYCTIGGSLSRSSQGTLVTVSS
In assay [6], B2 registered a Kd of 7.3 nM, a koff of 0.0023 s⁻¹ and a kon of 310000 M⁻¹ s⁻¹.

B3: Reference A+L11V+V89N+C-terminal alanine, N-terminal HIS6 tag (VHH)
VHH: EVQLVESGGGVVQPGGSLRLSCAASGFTFRSFGMSWVRQAPGKGPEWVSSISGSGSDTLYADSVKGRFTISRDNSKNTLYLQMNSLRPEDTANYYCTIGGSLSRSSQGTLVTVSS
In assay [7], B3 gave a Kd of 3.1 nM, a koff of 0.0036 s⁻¹ and a kon of 1.2e+06 M⁻¹ s⁻¹.

B4: Reference A+L11V+V89L+S101G+C-terminal alanine, N-terminal HIS6 tag (VHH)
VHH: EVQLVESGGGVVQPGGSLRLSCAASGFTFRSFGMSWVRQAPGKGPEWVSSISGSGSDTLYADSVKGRFTISRDNSKNTLYLQMNSLRPEDTALYYCTIGGSLGRSSQGTLVTVSS
In the case of B4, in assay [8], the Kd came out at 16 nM, the koff stood at 0.0017 s⁻¹ and the kon came out at 110000 M⁻¹ s⁻¹.

B5: Reference A+L11V+V89S+C-terminal alanine, N-terminal HIS6 tag (VHH)
VHH: EVQLVESGGGVVQPGGSLRLSCAASGFTFRSFGMSWVRQAPGKGPEWVSSISGSGSDTLYADSVKGRFTISRDNSKNTLYLQMNSLRPEDTASYYCTIGGSLSRSSQGTLVTVSS
In the case of B5, in [9], the Kd was 11 nM, the koff worked out at 0.0017 s⁻¹ and the kon is 160000 M⁻¹ s⁻¹.

B6: Reference A+L11V+V89L+S101E+C-terminal alanine, N-terminal HIS6 tag (VHH)
VHH: EVQLVESGGGVVQPGGSLRLSCAASGFTFRSFGMSWVRQAPGKGPEWVSSISGSGSDTLYADSVKGRFTISRDNSKNTLYLQMNSLRPEDTALYYCTIGGSLERSSQGTLVTVSS
With B6, in assay [8], the Kd came to 30 nM, the koff was determined as 0.0044 s⁻¹ and the kon was 150000 M⁻¹ s⁻¹.

B7: Reference A+L11V+V89T+S104T+C-terminal alanine, N-terminal HIS6 tag (VHH)
VHH: EVQLVESGGGVVQPGGSLRLSCAASGFTFRSFGMSWVRQAPGKGPEWVSSISGSGSDTLYADSVKGRFTISRDNSKNTLYLQMNSLRPEDTATYYCTIGGSLSRSTQGTLVTVSS
In assay [6], B7 showed a Kd of 12 nM, a koff of 0.0033 s⁻¹ and a kon of 280000 M⁻¹ s⁻¹.

B8: SEQ ID NO 127 (VHH)
VHH: DVQLVESGGGVVQPGGSLRLSCAASGFTFTSFGMSWVRQAPGKGPEWVSSISGSGSDTLYADSVKGRFTISRDNSKNTLYLQMNSLRPEDTALYYCTIGGSLSRSGQGTLVTVSS
notes: also called T at position 30
Regarding B8, the Kd in assay [1] turned out to be 2 nM; in [2], 490 nM; in assay [3] it was 21 nM; in [4], 2.1 nM; in [5], 8.6 nM. The koff is 0.0014 s⁻¹ in assay [1]; 0.22 s⁻¹ in assay [2]; 0.017 s⁻¹ in assay [3]; 0.0014 s⁻¹ in [4]; 0.0075 s⁻¹ in assay [5]. The kon in assay [1] amounted to 730000 M⁻¹ s⁻¹; in [2], 450000 M⁻¹ s⁻¹; in [3], 820000 M⁻¹ s⁻¹; in [4], 690000 M⁻¹ s⁻¹; in assay [5], 870000 M⁻¹ s⁻¹.

B9: Reference A+L11V+V89S+T110K+C-terminal alanine, N-terminal HIS6 tag (VHH)
VHH: HHHHHHEVQLVESGGGVVQPGGSLRLSCAASGFTFRSFGMSWVRQAPGKGPEWVSSISGSGSDTLYADSVKGRFTISRDNSKNTLYLQMNSLRPEDTASYYCTIGGSLSRSSQGTLVKVSSA
In [7], B9 yielded a Kd of 7.2 nM, a koff of 0.0015 s⁻¹ and a kon of 200000 M⁻¹ s⁻¹.

B10: Reference A+L11V+R30T+V89L+C-terminal alanine, N-terminal HIS6 tag (VHH)
VHH: EVQLVESGGGVVQPGGSLRLSCAASGFTFTSFGMSWVRQAPGKGPEWVSSISGSGSDTLYADSVKGRFTISRDNSKNTLYLQMNSLRPEDTALYYCTIGGSLSRSSQGTLVTVSS
Regarding B10, in assay [9], the Kd worked out at 22 nM, the koff stood at 0.0026 s⁻¹ and the kon was 120000 M⁻¹ s⁻¹.

B11: Reference A+L11V+V89N+T110K+C-terminal alanine, N-terminal HIS6 tag (VHH)
VHH: HHHHHHEVQLVESGGGVVQPGGSLRLSCAASGFTFRSFGMSWVRQAPGKGPEWVSSISGSGSDTLYADSVKGRFTISRDNSKNTLYLQMNSLRPEDTANYYCTIGGSLSRSSQGTLVKVSSA
In assay [7], B11 came in with a Kd of 7.3 nM, a koff of 0.0016 s⁻¹ and a kon of 220000 M⁻¹ s⁻¹.

B12: Reference A+L11V+V89T+T110K+C-terminal alanine, N-terminal HIS6 tag (VHH)
VHH: HHHHHHEVQLVESGGGVVQPGGSLRLSCAASGFTFRSFGMSWVRQAPGKGPEWVSSISGSGSDTLYADSVKGRFTISRDNSKNTLYLQMNSLRPEDTATYYCTIGGSLSRSSQGTLVKVSSA
With B12, in [6], binding was characterised by a dissociation constant (Kd) of 7.6 nM, the koff is 0.0021 s⁻¹ and the kon came to 280000 M⁻¹ s⁻¹.

B13: Reference A+L11V+V89A+C-terminal alanine, N-terminal HIS6 tag (VHH)
VHH: EVQLVESGGGVVQPGGSLRLSCAASGFTFRSFGMSWVRQAPGKGPEWVSSISGSGSDTLYADSVKGRFTISRDNSKNTLYLQMNSLRPEDTAAYYCTIGGSLSRSSQGTLVTVSS
For the molecule B13, in assay [10], the equilibrium dissociation constant (Kd) was determined as 7.3 nM, the koff amounted to 0.0019 s⁻¹ and the kon came out at 260000 M⁻¹ s⁻¹.

B14: SEQ ID NO 129 (VHH)
VHH: DVQLVESGGGVVQPGGSLRLSCAASGFTFTSFGMSWVRQAPGKGPEWVSSISGSGSDTLYADSVKGRFTISRDNSKNTLYLQMNSLRPEDTATYYCTIGGSLSRSGQGTLVTVSS
notes: also called T at position 30
B14: the Kd in assay [1] is 2.1 nM; in [2], 490 nM; in [3], 27 nM; in [4], 2.4 nM; in [5], 13 nM. Besides, the koff came out at 0.0015 s⁻¹ in assay [1]; 0.21 s⁻¹ in [2]; 0.021 s⁻¹ in assay [3]; 0.0015 s⁻¹ in [4]; 0.0098 s⁻¹ in assay [5]. The kon in [1] was 710000 M⁻¹ s⁻¹; in assay [2] it was 430000 M⁻¹ s⁻¹; in assay [3] it was 770000 M⁻¹ s⁻¹; in [4], 640000 M⁻¹ s⁻¹; in assay [5], 790000 M⁻¹ s⁻¹.

B15: Reference A+L11V+V89L+S104A+C-terminal alanine, N-terminal HIS6 tag (VHH)
VHH: EVQLVESGGGVVQPGGSLRLSCAASGFTFRSFGMSWVRQAPGKGPEWVSSISGSGSDTLYADSVKGRFTISRDNSKNTLYLQMNSLRPEDTALYYCTIGGSLSRSAQGTLVTVSS
In [8], B15 had a Kd of 30 nM, a koff of 0.0022 s⁻¹ and a kon of 72000 M⁻¹ s⁻¹.

B16: Reference A+L11V+S31D+V89L+C-terminal alanine, N-terminal HIS6 tag (VHH)
VHH: EVQLVESGGGVVQPGGSLRLSCAASGFTFRDFGMSWVRQAPGKGPEWVSSISGSGSDTLYADSVKGRFTISRDNSKNTLYLQMNSLRPEDTALYYCTIGGSLSRSSQGTLVTVSS
Turning to B16, in [9], binding was characterised by a dissociation constant (Kd) of 20 nM, the koff came out at 0.0032 s⁻¹ and the kon was 160000 M⁻¹ s⁻¹.

B17: SEQ ID NO 145 (VHH)
VHH: DVQLVESGGGVVQPGGSLRLSCAASGFTFTSFGMSWVRQAPGKGPEWVSSISGSGSDTLYADSVKGRFTISRDNSKNTLYLQMNSLRPEDTAAYYCTIGGSLSRSGQGTLVTVSS
notes: also called T at position 30
As to B17, the Kd worked out at 2.1 nM in assay [1]; 540 nM in assay [2]; 27 nM in assay [3]; 2.3 nM in [4]; 13 nM in [5]. The koff in assay [1] is 0.0014 s⁻¹; in assay [2], 0.23 s⁻¹; in assay [3] it was 0.02 s⁻¹; in [4], 0.0015 s⁻¹; in [5], 0.01 s⁻¹. Further, the kon came out at 690000 M⁻¹ s⁻¹ in assay [1]; 420000 M⁻¹ s⁻¹ in assay [2]; 750000 M⁻¹ s⁻¹ in assay [3]; 640000 M⁻¹ s⁻¹ in assay [4]; 790000 M⁻¹ s⁻¹ in [5].

B18: Reference A+L11V+V89A+T110K+C-terminal alanine, N-terminal HIS6 tag (VHH)
VHH: HHHHHHEVQLVESGGGVVQPGGSLRLSCAASGFTFRSFGMSWVRQAPGKGPEWVSSISGSGSDTLYADSVKGRFTISRDNSKNTLYLQMNSLRPEDTAAYYCTIGGSLSRSSQGTLVKVSSA
Regarding B18, in assay [10], the Kd is 6.5 nM, the koff was 0.0018 s⁻¹ and the kon turned out to be 270000 M⁻¹ s⁻¹.

B19: Reference A+L11V+V89L+S104G+C-terminal alanine, N-terminal HIS6 tag (VHH)
VHH: EVQLVESGGGVVQPGGSLRLSCAASGFTFRSFGMSWVRQAPGKGPEWVSSISGSGSDTLYADSVKGRFTISRDNSKNTLYLQMNSLRPEDTALYYCTIGGSLSRSGQGTLVTVSS
As for B19, in assay [10], the Kd stood at 8.3 nM, the koff came to 0.0022 s⁻¹ and the kon stood at 260000 M⁻¹ s⁻¹.
